Experimental data from US20260035431A1 (CAVALRY BIOSCIENCES, published 2026).
Residue numbers refer to the chain shown, from its start. Names and notes keep the numbering of the source.

How the values were obtained:
Assay in all cases: cell-based or functional assay
[1] = target: IGFBP3 (UniProt P17936 28-291)
[2] = target: T1, IGFBP2 (UniProt P18065 37-325, limits assumed)
T1 sequence (looked up): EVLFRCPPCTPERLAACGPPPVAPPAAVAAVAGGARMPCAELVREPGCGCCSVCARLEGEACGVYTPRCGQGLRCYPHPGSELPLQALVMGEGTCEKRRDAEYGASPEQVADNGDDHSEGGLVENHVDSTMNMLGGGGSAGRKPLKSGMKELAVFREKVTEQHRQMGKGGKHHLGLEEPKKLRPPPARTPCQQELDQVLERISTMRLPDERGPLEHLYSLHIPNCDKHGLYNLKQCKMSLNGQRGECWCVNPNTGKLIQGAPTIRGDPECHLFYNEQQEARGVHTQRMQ

[3] = target: T2, IGF1 receptor (IGF1R) on DU145 cells or immortalized human meibomian gland epithelial cells (human, UniProt P08069 31-1367)
[4] = target: T2, IGF1 receptor (IGF1R) on DU145 cells or …; remark: listed apart in the source

Chain of IGFBP3 (P17936 28-291 limits assumed): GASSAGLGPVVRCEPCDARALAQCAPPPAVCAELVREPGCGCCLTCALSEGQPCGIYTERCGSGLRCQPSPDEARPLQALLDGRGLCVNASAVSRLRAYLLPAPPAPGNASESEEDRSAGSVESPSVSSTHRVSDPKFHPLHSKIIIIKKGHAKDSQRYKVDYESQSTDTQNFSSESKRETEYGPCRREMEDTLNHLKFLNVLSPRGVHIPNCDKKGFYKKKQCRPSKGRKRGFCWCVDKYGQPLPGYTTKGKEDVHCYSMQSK
T2 sequence (P08069 31-1367): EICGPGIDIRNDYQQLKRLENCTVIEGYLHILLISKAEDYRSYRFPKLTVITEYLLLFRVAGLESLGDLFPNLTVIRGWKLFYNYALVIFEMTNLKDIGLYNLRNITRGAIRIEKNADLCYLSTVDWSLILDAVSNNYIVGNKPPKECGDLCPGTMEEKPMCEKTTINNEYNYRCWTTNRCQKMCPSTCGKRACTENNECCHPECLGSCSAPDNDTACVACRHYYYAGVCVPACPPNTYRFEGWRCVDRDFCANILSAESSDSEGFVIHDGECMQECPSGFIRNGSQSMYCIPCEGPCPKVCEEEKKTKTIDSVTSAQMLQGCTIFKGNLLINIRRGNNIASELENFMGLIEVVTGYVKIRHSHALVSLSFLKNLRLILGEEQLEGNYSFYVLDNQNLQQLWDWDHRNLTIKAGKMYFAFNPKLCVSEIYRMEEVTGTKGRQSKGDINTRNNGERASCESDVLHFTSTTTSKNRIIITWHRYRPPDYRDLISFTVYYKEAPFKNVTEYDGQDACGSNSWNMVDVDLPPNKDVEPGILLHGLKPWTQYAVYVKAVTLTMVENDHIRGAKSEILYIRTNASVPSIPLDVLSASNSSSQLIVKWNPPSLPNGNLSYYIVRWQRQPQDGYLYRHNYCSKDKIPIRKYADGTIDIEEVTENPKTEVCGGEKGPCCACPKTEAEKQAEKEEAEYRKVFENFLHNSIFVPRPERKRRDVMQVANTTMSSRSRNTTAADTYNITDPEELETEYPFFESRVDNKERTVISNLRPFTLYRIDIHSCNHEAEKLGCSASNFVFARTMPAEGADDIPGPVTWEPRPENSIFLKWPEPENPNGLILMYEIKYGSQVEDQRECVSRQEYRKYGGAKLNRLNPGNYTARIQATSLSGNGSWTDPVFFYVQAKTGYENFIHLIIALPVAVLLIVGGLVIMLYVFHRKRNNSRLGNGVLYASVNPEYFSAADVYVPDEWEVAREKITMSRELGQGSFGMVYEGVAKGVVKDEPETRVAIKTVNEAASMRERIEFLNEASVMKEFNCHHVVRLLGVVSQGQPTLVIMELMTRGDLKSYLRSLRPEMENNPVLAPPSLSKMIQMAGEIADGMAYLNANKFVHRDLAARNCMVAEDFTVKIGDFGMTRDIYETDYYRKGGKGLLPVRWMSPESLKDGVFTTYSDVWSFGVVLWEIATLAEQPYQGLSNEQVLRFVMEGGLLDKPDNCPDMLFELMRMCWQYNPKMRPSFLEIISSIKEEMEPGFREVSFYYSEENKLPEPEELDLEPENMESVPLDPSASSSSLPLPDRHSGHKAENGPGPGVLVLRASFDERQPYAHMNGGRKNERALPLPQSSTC

B1: E3R-F49L-D12A (ligand)
chain: GPRTLCGAELVAALQFVCGDRGFYFNKPTGYGSSSRRAPQTGIVDECCLRSCDLRRLEMYCAPLKPAKSA
- % Activity compared to no IGFBP, 4x BP3 [1]: 342%
- % Activity compared to no IGFBP, 4x BP2 [2]: 357%
- EC50 (nM), P-AKT in DU145 cells [3]: 17.7 nM

B2: E3R-F49L-L54A (ligand)
chain: B1 chain with A12D, L54A
- % Activity compared to no IGFBP, 4x BP3 [1]: 239%
- % Activity compared to no IGFBP, 4x BP2 [2]: 175%
- EC50 (nM), P-AKT in DU145 cells [3]: 11.4 nM

B3: E3R-F49L-D12A-L54A (ligand)
chain: B1 chain with L54A
- % Activity compared to no IGFBP, 4x BP3 [1]: 344%
- % Activity compared to no IGFBP, 4x BP2 [2]: 456%
- EC50 (nM), P-AKT in DU145 cells [3]: 68.1 nM

B4: IGF-1 Des1-3 R37X (ligand)
chain: TLCGAELVDALQFVCGDRGFYFNKPTGYGSSSRAPQTGIVDECCFRSCDLRRLEMYCAPLKPAKSA
- EC50, AKT S473 phosphorylation in DU145 cells [4]: 4.1 nM

B5: IGF-1 Des1-3 (SEQ ID NO: 8) as tested in Example 1 (ligand)
chain: MRAAAPAVAATLCGAELVDALQFVCGDRGFYFNKPTGYGSSSRRAPQTGIVDECCFRSCDLRRLEMYCAPLKPAKSA
- EC50, AKT S473 phosphorylation in DU145 cells [4]: 2.3 nM
